What follows are substances tested against Human α-thrombin (human) (UniProt P00734) (assay: inhibition of thrombin-catalysed hydrolysis of chromogenic substrate S-2238, 37 °C).

Row | Ki | Substance
1 | 0.002 µM | Bivalirudin (peptide)

These substances were tested against Human α-thrombin (human) (UniProt P00734) (assay: inhibition of thrombin by monovalent active-site moiety; conditions not given at the table).

Row | Substance | Ki
2 | Dansyl-R-(d-Pip)-Abu-NH2 (peptide) | 0.82 µM
3 | Dansyl-R-(d-Tic)-NH2 (peptide) | 0.86 µM
4 | Bbs-R-(d-Pip)-G-NH2 (peptide) | 2.26 µM
5 | H-dFPR (peptide) | 1.57 µM
6 | Bbs-R-(d-Pip)-NH2 (peptide) | 1.13 µM

Results, then the substance that gave them:

Row | Ki | Substance
7 | 6 µM | Bbs-R-(d-Pip)-W-NH2 (peptide)
8 | 170 µM | Ac-dFPR (peptide)
9 | 0.37 µM | Dansyl-R-(d-Pip)-NH2 (peptide)
10 | 4.38 µM | Boc-dFPR (peptide)
